Results published in the supplement of paper PMC5998384.

Columns and labels:
HeLa Kyoto [1] = assay: thermal stability score vs G1/S (z-score of summed log2 fold changes over temperatures); higher = more thermally stable than in G1/S
HeLa Kyoto [2] = assay: melting temperature (median over replicates), in situ; higher = more thermally stable
[3] = cell cycle stage: early G1 (4.5 h after nocodazole release)
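For melting temperature (median over replicates), in situ in this document: HeLa Kyoto cells synchronized by double thymidine or nocodazole block, proteins quantified by TMT10plex mass spectrometry, three independent biological replicates.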
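For thermal stability score vs G1/S (z-score of summed log2 fold changes over temperatures) in this document: synchronized HeLa Kyoto cells, proteins quantified by TMT10plex mass spectrometry, three biological replicates, mitosis taken 0.5 h after nocodazole release, G1/S directly after double thymidine block.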

Row | Sequence | thermal stability score (HeLa Kyoto [1]; [3]) | thermal stability score (HeLa Kyoto [1]; cell cycle stage: mitosis) | melting temperature (HeLa Kyoto [2]; cell cycle stage: mitosis) [°C] | melting temperature (HeLa Kyoto [2]; cell cycle stage: G1/S) [°C]
1 | MEEHGVTQTEHMATIEAHAVAQQVQQVHVATYTEHSMLSADEDSPSSPEDTSYDDSDILNSTAADEVTAHLAAAGPVGMAAAAAVATGKKRKRPHVFESNPSIRKRQQTRLLRKLRATLDEYTTRVGQQAIVLCISPSKPNPVFKVFGAAPLENVVRKYKSMILEDLESALAEHAPAPQEVNSELPPLTIDGIPVSVDKMTQAQLRAFIPEMLKYSTGRGKPGWGKESCKPIWWPEDIPWANVRSDVRTEEQKQRVSWTQALRTIVKNCYKQHGREDLLYAFEDQQTQTQATATHSIAHLVPSQTVVQTFSNPDGTVSLIQVGTGATVATLADASELPTTVTVAQVNYSAVADGEVEQNWATLQGGEMTIQTTQASEATQAVASLAEAAVAASQEMQQGATVTMALNSEAAAHAVATLAEATLQGGGQIVLSGETAAAVGALTGVQDANGLVQIPVSMYQTVVTSLAQGNGPVQVAMAPVTTRISDSAVTMDGQAVEVVTLEQ [NRF1] | -0.324 | 0.518 | 51.4 | 
2 | MREYKVVVLGSGGVGKSALTVQFVTGSFIEKYDPTIEDFYRKEIEVDSSPSVLEILDTAGTEQFASMRDLYIKNGQGFILVYSLVNQQSFQDIKPMRDQIIRVKRYERVPMILVGNKVDLEGEREVSYGEGKALAEEWSCPFMETSAKNKASVDELFAEIVRQMNYAAQPNGDEGCCSACVIL [RAP2B] | -0.0087 | 0.542 | 60.7 | 59.2
3 | MAAVVAKREGPPFISEAAVRGNAAVLDYCRTSVSALSGATAGILGLTGLYGFIFYLLASVLLSLLLILKAGRRWNKYFKSRRPLFTGGLIGGLFTYVLFWTFLYGMVHVY [EMC6] | 1.03 | -0.846 | 54.1 | 54.6
4 | METLYRVPFLVLECPNLKLKKPPWLHMPSAMTVYALVVVSYFLITGGIIYDVIVEPPSVGSMTDEHGHQRPVAFLAYRVNGQYIMEGLASSFLFTMGGLGFIILDRSNAPNIPKLNRFLLLFIGFVCVLLSFFMARVFMRMKLPGYLMG [OSTC] | 0.174 | 0.407 | 54.8 | 
5 | MEVGGDTAAPAPGGAEDLEDTQFPSEEAREGGGVHAVPPDPEDEGLEETGSKDKDQPPSPSPPPQSEALSSTSRLWSPAAPENSPTCSPESSSGGQGGDPSDEEWRSQRKHVFVLSEAGKPIYSRYGSVEALSATMGVMTALVSFVQSAGDAIRAIYAEDHKLVFLQQGPLLLVAMSRTSQSAAQLRGELLAVHAQIVSTLTRASVARIFAHKQNYDLRRLLAGSERTLDRLLDSMEQDPGALLLGAVRCVPLARPLRDALGALLRRCTAPGLALSVLAVGGRLITAAQERNVLAECRLDPADLQLLLDWVGAPAFAAGEAWAPVCLPRFNPDGFFYAYVARLDAMPVCLLLLGTQREAFHAMAACRRLVEDGMHALGAMRALGEAASFSNASSASAPAYSVQAVGAPGLRHFLYKPLDIPDHHRQLPQFTSPELEAPYSREEERQRLSDLYHRLHARLHSTSRPLRLIYHVAEKETLLAWVTSKFELYTCLSPLVTKAGAILVVTKLLRWVKKEEDRLFIRYPPKYSTPPATSTDQAAHNGLFTGL [MON1B] | -0.93 | -0.544 | 52.7 | 52.9
6 | MTMAAAAVVARGAGARAATAAALRGGCGTAARGRPCAGPARPLCTAPGTAPDMKRYLWERYREAKRSTEELVPSIMSNLLNPDAIFSNNEMSLSDIEIYGFDYDYTLVFYSKHLHTLIFNAARDLLINEHRYPAEIRKYEYDPNFAIRGLHYDVQRAVLMKIDAFHYIQLGTVYRGLSVVPDEEVIEMYEGSHVPLEQMSDFYGKSSHGNTMKQFMDIFSLPEMTLLSCVNEYFLKNNIDYEPVHLYKDVKDSIRDVHIKGIMYRAIEADIEKYICYAEQTRAVLAKLADHGKKMFLITNSPSSFVDKGMSYIVGKDWRDLFDVVIVQAEKPNFFNDKRRPFRKMNEKGVLLWDKIHKLQKGQIYKQGNLYEFLKLTGWRGSRVLYFGDHIYSDLADLTLKHGWRTGAIIPELRSELKIMNTEQYIQTMTWLQTLTGLLEQMQVHRDAESQLVLQEWKKERKEMREMTKSFFNAQFGSLFRTDQNPTYFLRRLSRFADIYMASLSCLLNYDVSHTFYPRRTPLQHELPAWSERPPTFGTPLLQEAQAK [NT5DC3] | -1.05 | -1.22 | 54 | 53.4
7 | MQPPGPPPAYAPTNGDFTFVSSADAEDLSGSIASPDVKLNLGGDFIKESTATTFLRQRGYGWLLEVEDDDPEDNKPLLEELDIDLKDIYYKIRCVLMPMPSLGFNRQVVRDNPDFWGPLAVVLFFSMISLYGQFRVVSWIITIWIFGSLTIFLLARVLGGEVAYGQVLGVIGYSLLPLIVIAPVLLVVGSFEVVSTLIKLFGVFWAAYSAASLLVGEEFKTKKPLLIYPIFLLYIYFLSLYTGV [YIPF4] | -0.481 | -2.96 | 56.1 | 57.7
8 | MDGPVAEHAKQEPFHVVTPLLESWALSQVAGMPVFLKCENVQPSGSFKIRGIGHFCQEMAKKGCRHLVCSSGGNAGIAAAYAARKLGIPATIVLPESTSLQVVQRLQGEGAEVQLTGKVWDEANLRAQELAKRDGWENVPPFDHPLIWKGHASLVQELKAVLRTPPGALVLAVGGGGLLAGVVAGLLEVGWQHVPIIAMETHGAHCFNAAITAGKLVTLPDITSVAKSLGAKTVAARALECMQVCKIHSEVVEDTEAVSAVQQLLDDERMLVEPACGAALAAIYSGLLRRLQAEGCLPPSLTSVVVIVCGGNNINSRELQALKTHLGQV [SDSL] | -3.07 | -2.65 | 57.9 | 55.1
9 | MALRELKVCLLGDTGVGKSSIVWRFVEDSFDPNINPTIGASFMTKTVQYQNELHKFLIWDTAGQERFRALAPMYYRGSAAAIIVYDITKEETFSTLKNWVKELRQHGPPNIVVAIAGNKCDLIDVREVMERDAKDYADSIHAIFVETSAKNAININELFIEISRRIPSTDANLPSGGKGFKLRRQPSEPKRSCC [RAB22A] | 1.25 | 0.617 | 53.7 | 54.8
10 | MDSFNYTTPDYGHYDDKDTLDLNTPVDKTSNTLRVPDILALVIFAVVFLVGVLGNALVVWVTAFEAKRTINAIWFLNLAVADFLSCLALPILFTSIVQHHHWPFGGAACSILPSLILLNMYASILLLATISADRFLLVFKPIWCQNFRGAGLAWIACAVAWGLALLLTIPSFLYRVVREEYFPPKVLCGVDYSHDKRRERAVAIVRLVLGFLWPLLTLTICYTFILLRTWSRRATRSTKTLKVVVAVVASFFIFWLPYQVTGIMMSFLEPSSPTFLLLKKLDSLCVSFAYINCCINPIIYVVAGQGFQGRLRKSLPSLLRNVLTEESVVRESKSFTRSTVDTMAQKTQAV [C5AR1] | -2.16 | -2.08 | 57.4 | 57.8
11 | MLCRLGGRWLRPLPALQLWARDLPLAPVPTSGAKRPTLPVWAVAPVSAVHANGWYEALAASSPVRVAEEVLLGVHAATGLPWWGSILLSTVALRGAVTLPLAAYQHYILAKVENLQPEIKTIARHLNQEVAVRANQLGWSKRDARLTYLKNMRRLISELYVRDNCHPFKATVLVWIQLPMWIFMSFALRNLSTGAAHSEGFSVQEQLATGGILWFPDLTAPDSTWILPISVGVINLLIVEICALQKIGMSRFQTYITYFVRAMSVLMIPIAATVPSSIVLYWLCSSFVGLSQNLLLRSPGFRQLCRIPSTKSDSETPYKDIFAAFNTKFISRK [COX18] | 0.867 | -0.575 | 57.1 | 
12 | MPKNKKRNTPHRGSSAGGGGSGAAAATAATAGGQHRNVQPFSDEDASIETMSHCSGYSDPSSFAEDGPEVLDEEGTQEDLEYKLKGLIDLTLDKSAKTRQAALEGIKNALASKMLYEFILERRMTLTDSIERCLKKGKSDEQRAAAALASVLCIQLGPGIESEEILKTLGPILKKIICDGSASMQARQTCATCFGVCCFIATDDITELYSTLECLENIFTKSYLKEKDTTVICSTPNTVLHISSLLAWTLLLTICPINEVKKKLEMHFHKLPSLLSCDDVNMRIAAGESLALLFELARGIESDFFYEDMESLTQMLRALATDGNKHRAKVDKRKQRSVFRDVLRAVEERDFPTETIKFGPERMYIDCWVKKHTYDTFKEVLGSGMQYHLQSNEFLRNVFELGPPVMLDAATLKTMKISRFERHLYNSAAFKARTKARSKCRDKRADVGEFF [IFRD1] | 0.75 | 1.11 |  | 56.4
13 | MPGRSCVALVLLAAAVSCAVAQHAPPWTEDCRKSTYPPSGPTYRGAVPWYTINLDLPPYKRWHELMLDKAPVLKVIVNSLKNMINTFVPSGKIMQVVDEKLPGLLGNFPGPFEEEMKGIAAVTDIPLGEIISFNIFYELFTICTSIVAEDKKGHLIHGRNMDFGVFLGWNINNDTWVITEQLKPLTVNLDFQRNNKTVFKASSFAGYVGMLTGFKPGLFSLTLNERFSINGGYLGILEWILGKKDVMWIGFLTRTVLENSTSYEEAKNLLTKTKILAPAYFILGGNQSGEGCVITRDRKESLDVYELDAKQGRWYVVQTNYDRWKHPFFLDDRRTPAKMCLNRTSQENISFETMYDVLSTKPVLNKLTVYTTLIDVTKGQFETYLRDCPDPCIGW [ASAH1] | -1.25 | -2.17 | 55.9 | 55.8
14 | MGKNKLLHPSLVLLLLVLLPTDASVSGKPQYMVLVPSLLHTETTEKGCVLLSYLNETVTVSASLESVRGNRSLFTDLEAENDVLHCVAFAVPKSSSNEEVMFLTVQVKGPTQEFKKRTTVMVKNEDSLVFVQTDKSIYKPGQTVKFRVVSMDENFHPLNELIPLVYIQDPKGNRIAQWQSFQLEGGLKQFSFPLSSEPFQGSYKVVVQKKSGGRTEHPFTVEEFVLPKFEVQVTVPKIITILEEEMNVSVCGLYTYGKPVPGHVTVSICRKYSDASDCHGEDSQAFCEKFSGQLNSHGCFYQQVKTKVFQLKRKEYEMKLHTEAQIQEEGTVVELTGRQSSEITRTITKLSFVKVDSHFRQGIPFFGQVRLVDGKGVPIPNKVIFIRGNEANYYSNATTDEHGLVQFSINTTNVMGTSLTVRVNYKDRSPCYGYQWVSEEHEEAHHTAYLVFSPSKSFVHLEPMSHELPCGHTQTVQAHYILNGGTLLGLKKLSFYYLIMAKGGIVRTGTHGLLVKQEDMKGHFSISIPVKSDIAPVARLLIYAVLPTGDVIGDSAKYDVENCLANKVDLSFSPSQSLPASHAHLRVTAAPQSVCALRAVDQSVLLMKPDAELSASSVYNLLPEKDLTGFPGPLNDQDNEDCINRHNVYINGITYTPVSSTNEKDMYSFLEDMGLKAFTNSKIRKPKMCPQLQQYEMHGPEGLRVGFYESDVMGRGHARLVHVEEPHTETVRKYFPETWIWDLVVVNSAGVAEVGVTVPDTITEWKAGAFCLSEDAGLGISSTASLRAFQPFFVELTMPYSVIRGEAFTLKATVLNYLPKCIRVSVQLEASPAFLAVPVEKEQAPHCICANGRQTVSWAVTPKSLGNVNFTVSAEALESQELCGTEVPSVPEHGRKDTVIKPLLVEPEGLEKETTFNSLLCPSGGEVSEELSLKLPPNVVEESARASVSVLGDILGSAMQNTQNLLQMPYGCGEQNMVLFAPNIYVLDYLNETQQLTPEIKSKAIGYLNTGYQRQLNYKHYDGSYSTFGERYGRNQGNTWLTAFVLKTFAQARAYIFIDEAHITQALIWLSQRQKDNGCFRSSGSLLNNAIKGGVEDEVTLSAYITIALLEIPLTVTHPVVRNALFCLESAWKTAQEGDHGSHVYTKALLAYAFALAGNQDKRKEVLKSLNEEAVKKDNSVHWERPQKPKAPVGHFYEPQAPSAEVEMTSYVLLAYLTAQPAPTSEDLTSATNIVKWITKQQNAQGGFSSTQDTVVALHALSKYGAATFTRTGKAAQVTIQSSGTFSSKFQVDNNNRLLLQQVSLPELPGEYSMKVTGEGCVYLQTSLKYNILPEKEEFPFALGVQTLPQTCDEPKAHTSFQISLSVSYTGSRSASNMAIVDVKMVSGFIPLKPTVKMLERSNHVSRTEVSSNHVLIYLDKVSNQTLSLFFTVLQDVPVRDLKPAIVKVYDYYETDEFAIAEYNAPCSKDLGNA [A2M] | -2.38 | -0.965 |  | 
15 | MSVPGPYQAATGPSSAPSAPPSYEETVAVNSYYPTPPAPMPGPTTGLVTGPDGKGMNPPSYYTQPAPIPNNNPITVQTVYVQHPITFLDRPIQMCCPSCNKMIVSQLSYNAGALTWLSCGSLCLLGCIAGCCFIPFCVDALQDVDHYCPNCRALLGTYKRL [LITAF] | -0.592 | -0.943 |  | 
